Measured values reported in paper PMC5430435.

Legend:
[1] = molecular target: mouse LHR endogenously expressed in mLTC-1 cells (mouse (endogenous in mLTC-1)) (UniProt P30730)
[2] = molecular target: hLH/CGR C-terminally fused to the BRET donor Rluc8 (human) (UniProt P22888)
[3] = molecular target: human LH/CGR (wild type, without BRET fusion) (human) (UniProt P22888)

Chain of UniProt P30730 (P30730 27-700): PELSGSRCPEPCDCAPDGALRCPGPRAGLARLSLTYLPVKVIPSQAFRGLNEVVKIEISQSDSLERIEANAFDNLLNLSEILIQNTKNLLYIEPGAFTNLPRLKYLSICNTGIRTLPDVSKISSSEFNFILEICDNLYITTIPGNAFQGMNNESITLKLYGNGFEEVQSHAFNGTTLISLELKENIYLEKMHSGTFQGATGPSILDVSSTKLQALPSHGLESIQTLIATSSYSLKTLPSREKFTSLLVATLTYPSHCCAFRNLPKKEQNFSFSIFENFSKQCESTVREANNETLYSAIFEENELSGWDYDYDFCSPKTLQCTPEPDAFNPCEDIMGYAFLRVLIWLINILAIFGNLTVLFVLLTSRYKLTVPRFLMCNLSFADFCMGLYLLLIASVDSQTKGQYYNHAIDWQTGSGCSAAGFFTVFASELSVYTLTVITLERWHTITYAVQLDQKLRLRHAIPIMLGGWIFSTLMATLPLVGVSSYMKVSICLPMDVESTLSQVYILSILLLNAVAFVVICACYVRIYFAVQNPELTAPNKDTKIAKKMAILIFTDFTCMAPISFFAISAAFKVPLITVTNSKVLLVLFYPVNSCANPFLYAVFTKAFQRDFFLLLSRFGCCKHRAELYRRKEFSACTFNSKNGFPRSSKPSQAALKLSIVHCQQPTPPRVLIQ

| Substance | Cre-reporter assay (pSOM-Luc luciferase) in mLTC-1 cells, 6 hours with increasing doses; EC50 [1] [pM] | cAMP (BRET sensor CAMYEL) in mLTC-1 cells, 30 minutes with increasing doses; EC50 [1] [nM] | cAMP (HTRF) in native mLTC-1 cells, 30 minutes with increasing doses; EC50 [1] [nM] | progesterone production by mLTC-1 cells (ELISA of supernatants), 3 hours with increasing doses; EC50 [1] [nM] | testosterone production by mLTC-1 cells (HTRF of supernatants), 3 hours with increasing doses; EC50 [1] [nM] | β-arrestin 2 recruitment (BRET between hLH/CGR-Rluc8 and yPET-β-arrestin 2) in HEK293 cells, 30 minutes with increasing doses; EC50 [2] [nM] | Cre-reporter assay (pSOM-Luc luciferase) in HEK293 cells expressing hLH/CGR, 6 hours with increasing doses; EC50 [3] [pM] | cAMP production (BRET sensor CAMYEL) in HEK293 cells expressing hLH/CGR, 30 minutes with increasing doses; EC50 [3] [nM] |
| --- | --- | --- | --- | --- | --- | --- | --- | --- |
| human recombinant luteinizing hormone rhLH (Luveris) (from UniProt P01215 25-116; P01229 21-141) (ligand) | 318 | 0.459 | 1.98 | 0.306 | 0.0291 | 129 | 215 | 0.286 |
| recombinant human chorionic gonadotropin rhCG (Ovitrelle) (from UniProt P01215 25-116; P0DN86 21-165) (ligand) | 25 | 0.0688 | 0.0974 | 0.0197 | 0.00219 | 10.3 | 37.5 | 0.0176 |
